From a protein production outcome set (Wang et al. 2014)

Test: label from the status in PepcDB records

Sequence | protein production
MFRIIQPHRWKLAVLMIAANLGLLAFLAFGTIKHVSEWQWLDIVGEGGSALLSLVWLFLVFKSRPAGRVTNYLSVGLSCVFFSWWIDALDEFIRLPAEIEWDHWLESGPMPVGLILLTLGIYHWHREQLAISAQMEKRERGFREHRLYDKLTPLGSADYLKRQLIVSLEQSLCQQQPLSLLALDLDGFSTINNAFGHAEGDEVLSAISHLLVLNLRRQDLLCRLAGDRFVVLMPNTGESQAKLLALELQQAVASLAHKTRQQGERLHLSASVAVVMALNETPDNLLRRLNLSLARARRPLTRTA | failed
MTMMTATQALSVNPATGQTLAAMPWANAQEIEHALSLAASGFKKWKMTSVAQRAQTLRDIGQALRAHAEEMAQCITREMGKPIKQARAEVTKSAALCDWYAEHGPAMLNPEPTLVENQQAVIEYRPLGVILAIMPWNFPLWQVLRGAVPILLAGNSYLLKHAPNVTGCAQMIARILAEAGTPAGVYGWVNANNEGVSQMINDPRIAAVTVTGSVRAGAAIGAQAGAALKKCVLELGGSDPFIVLNDADLELAVKAAVAGRYQNTGQVCAAAKRFIVEEGIAQAFTDRFVAAAAALKMGDPLVEENDLGPMARFDLRDELHQQVQASVAEGARLLLGGEKIAGEGNYYAATVLADVTPDMTAFRQELFGPVAAITVAKDAAHALALANDSEFGLSATIFTADDTLAAEMAARLECGGVFINGYSASDARVAFGGVKKSGFGRELSHFGLHEFCNVQTVWKNRV | failed
MKKKKVIASIVAVCFSLALLSTWVMIFGCMKRGEQELHANTSVEIPDMSSIPGCVQNGGQLMYRGNIYKYDPANINILFMGIDARGEDESIGQADMLALVVINTEKDTVKCICINRDSIGPVAIYDISGKAATTKNVQIALAYSYGKSQSEGRGLEMNTVSKLLHGIPIHGSVSVDIDGIGGINELAGGITLTALEDVPKAGIVKGEEVTLNDEQAMYYVTERDSASTDIGTNENRMSRQKQYISAWCDAVQQQIKKNPFKIFKMYDSVQGYVDTDISRNSMLYLAKVLKRVQFGEGDIYTVSGDYERENYYDKYLIDEDKLTEMMIETFYRKTE | failed
MTSPENPDLPDADDAYVDSGPGTQPASLEDLDMDSASTMRPMATQAVYRPEFDDTDGTSRGTVVTEAYDQVTMATRALSPMRRLGGGLVEIPRVPERDPLTALMTNPVVAESKRFCWNCGKPVGRSTPDGRALSEGWCPHCGSPYSFLPQLSPGDIVADQYEIKGCIAHGGLGWVYLAFDKNVNDRPVVLKGLVHSGDAEAQAIAMAERQFLAEVTHPGIVKIYNFVEHEDKHGNPVGYIVMEYVGGTSLKQARGAKLPVAEAIGYMLEILPALGYLHSIGLAYNDLKPENIMITEEQLKLIDLGAVSRLNSYGYLYGTPGYQAPEIVRTGPTVATDIYTVGRTLAALTLSLRTRRGRYVDGLPSDDPVLETYDSYHRLLRRAIDPDPRRRFTSAEEMSSQLLGVLREVVATDTGVPRPGLSTVFSPSRSTFGVDLLVAHTDVYVDGQVHSEKLTAQEIVRALPVPLVDRTDVGAPMLVASVLSEPVHTLDQLRAARHGALDTEGIDLNESVELPLMEVRALLDLGDVAKATRKLEDLAARVGWRWRLVWFKAVSEMLSADYDSATKHFTEVLDTLPGELAPKLALAATAELAGTADELKFYKTVWSTDNGVISAGFGLARAQSVAGERDMAVQTLDEVPPTSRHFTTARLTSAVTLLSGRSTSEITEQHIRDAARRVEALPDSEPRVLQIRALVLGTALDWLADNTASSNHILGFPFTEHGLKLGVEASLRALARIAPTQSHRYALVDLANSVRPMSTF | failed
MRVNGLTKGFFILIVFIVTLAFFDVLSPYYSAILWAAILAVIFNPVKNKIRTRLGERNGLAALMTIVIICLIVFTPLAIILSSLAYELNLVYSKLQHNDTQFPTVVASLFAHLPGWARSFLADHNLDSAQQIQQQLSDAALKGGQYLAGSAFLIGKGTFGFTVSFGIMLYLLFFLLKDGPYLVLLILESLPLSSYVKQHLFAKFAAVARATVKGTVAVALAQGALGGFAFWIAGLDGSILWGALMAFLSLIPAVGSAIIWVPAAIYLFATGQLWQGAFIVGFFVIVIGLVDNILRPLLVGKDTRMPDYLILIATLGGMEIYGINGFVIGPLIAALFIACWNLLSGREHAGNTDEIDEEFIEEAKNSRNE | failed
MNERRKAELVLLGATFIWGSTFPVMKIGVEDFPPITFIALRFGIASFVLFLALRKHIRKDALFPGLILGFTLFLGHGFQIVGLKYTTPSNSAFITSLYVVFTPFIAFLFFRKGLKMFDAFSLSLAVIGLYLISNAELRLNYGDALTVVAALSFAFQIVLVEYFGNLGVGLAFWQIFWNFILSTVYAGIFEGISLPSDPKVLGGIIYTGIFATALSFTLQVKYQPKVESYKAAIIYSSEPIFAHLLALAFLNDRLPPKGYLGAFLILLAVWLELYQERKNY | failed
MTIKALFWDIGGVLLTNGWDREQRADVAQRFGLDTDDFTERHRLAAPELELGRMTLAEYLEQVVFYQPRDFTPEDFRAVMEEQSQPRPEVLALARDLGQRYRMYSLNNEGRDLNEYRIRTFGLGEFLLAFFTSSALGVMKPNPAMYRLGLTLAQVRPEEAVMVDDRLQNVQAARAVGMHAVQCVDAAQLREELAALGVR | not failed
RHQPEINQTPGEAQALFVWRDNQDHRDDIERHYLKMLTSARREVIIANAYFFPGYRLLHAMRNAARRGVRVKLIVQGEPDIPIVKFGAHLLYHYLVKGGVQIYEYRRRPLHGKVALADDHWATVGSSNLDPLSLSLNLEANLIIHDRVFNQTLRDNLNGLIARDCQRIDKTMLPKRNWWRLGVSVMAFHFLRHFPAWVGWLP | failed
MESEGEAQMFADCDQKTVKQTAAKPMSSKKKQDFQALASDRQLAIVFSSMIQVSEAFDYGIGNPEYFVRISMTEEEADIAKENLESIKLENKSLKKQNSEAVALLQKTRNQDMSRIEIQQLTENRAGFFETADSMIKLINQVTPKNAKKTRQQLDQLKKQYTQYSAESIKIMNSIVKKQKADKASFERHLEALLQKQPGQQVRSELYLEHHHHHH | not failed
MSNVAQYKDGTYIGKAQGKAAEVEVTVSIKEGKIANAEVLKHGDTEAMMLSATDQIVPELIEKQDINKVDAVTGATLSSQGVINAVKQALEQAKVTPLEHHHHHH | not failed
MRWVKAGELPMEAAYGATVSLPDRLIFIGGSNSSDRFSSVLSFSFDCMKDSGLICETLPPLPHAVDNMSATLLGDTLYVLGGNRNGIPSSSMFSLCLDNYSAGWTEVPFPGRPRVQPVCSSLLGKLYVFGGFTSGGDASVSTDGLCYHPESGQWQVVKAPLTTKGEPLTLTGGASVSYGDVLLICAGGVNRDIFEDAISARYQMVRESEYLLQPIEWYRFNDQLLAYNVRSGEWIRIGVPSPMLARAGSSLVVFGDILFYIGGELKPGVLEHHHHHH | failed
MAGRRRRPTTDRTIGGLSFSQRELRDLLVAWLALGLAFTFFLEREFRRIVFGQFGGLSGAEIASTFAVSLLTVGVGFLLHELAHKVVAVRFGQIAAFKADYRMLGFAVLGGLVGFLFAAPGAVVHRGRLTAKQHGLIAVAGPVTNLALAVVFLVPFFLTASMGIGGFLRELTEMGLQINLLLAGFNMLPFGPLDGRTVREWSTPVFLAVAVPSILLGVGALFVL | failed
MSSVINYEKFEKIDISSSDDDNKKKLNPHLTKLDNKDKVVIGPNGLTILKNNNDEKIKHDKYNNTSKNVEEIKDKNDEYKTIYNETNNEILNNKNDNIHVQNMNNYVADDKKYKDMFINGAVVPYEYIWNQSIHYINAFICLPLNCKAKNLIVDIKEDKLIVKIKNYKCGIIYNNNNNNNKTNQHNTQSNSFHDNVEILVDKKFPFKINTDEDTQIWEIKNMQINWYTLFNLSNEINNQNVHYLFEDYNMLDKQETFLYISVKKINEIENAYIWWSTLFKNEHPIKIENLPSRSSTNKAKKTMNSFKTAWDEAHEIFKKNISMKQLPFRIDSS | failed
MEGSIDHHVRKAIQIGVNPLQAIQMASLNAAECFKLAKKGAIAPGFTADLLFIEDLQSLAITHVFKNGTCVAKNGKLIVPLEHHHHHH | failed
MHMKTVRQERLKSIVRILERSKEPVSGAQLAEELSVSRQVIVQDIAYLRSLGYNIVATPRGYVLAGGKSGVSRLVAVKHAPEEIKEELLCVVRNGGRIVDVIVEHPVYGEIRGIIDVSSEEEVLKFVNLMEMAKTEPLLTLSGGVHLHTIEAPDEETMERIMRELKKKGFLIEEG | not failed
